Starred links: 1 amine or outer side, 2 acyl side, 3 side chain; linkers in the order of their positions; H or OH if unused. Non-standard residues stand in square brackets, D forms with d. *: point of attachment. C20 diacid = O=C(O)CCCCCCCCCCCCCCCCCCC(=O)*; γGlu = O=C(O)[C@H](CCC(=O)[*:2])N[*:1]; Hyp = O=C(O)[C@@H]1C[C@@H](O)CN1
T1: human amylin receptor (AMY3) on CHO-K1/Ga15/AMY3 amylin receptor/CRE-luc cells (human, UniProt P30988 25-474; O60896 24-148)
T1 sequence (looked up) 1: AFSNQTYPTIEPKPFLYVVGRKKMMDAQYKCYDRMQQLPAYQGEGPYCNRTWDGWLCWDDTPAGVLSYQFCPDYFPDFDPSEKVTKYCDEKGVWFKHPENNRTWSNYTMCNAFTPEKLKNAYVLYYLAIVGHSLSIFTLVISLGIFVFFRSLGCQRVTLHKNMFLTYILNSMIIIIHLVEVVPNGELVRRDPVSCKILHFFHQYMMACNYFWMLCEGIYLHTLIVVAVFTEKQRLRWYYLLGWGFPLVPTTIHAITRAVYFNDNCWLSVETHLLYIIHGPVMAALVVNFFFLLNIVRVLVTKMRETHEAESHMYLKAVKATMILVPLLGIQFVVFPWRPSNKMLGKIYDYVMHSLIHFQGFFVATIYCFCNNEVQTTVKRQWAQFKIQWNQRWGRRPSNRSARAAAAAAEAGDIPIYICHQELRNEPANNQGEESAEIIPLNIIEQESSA
T1 sequence (looked up) 2: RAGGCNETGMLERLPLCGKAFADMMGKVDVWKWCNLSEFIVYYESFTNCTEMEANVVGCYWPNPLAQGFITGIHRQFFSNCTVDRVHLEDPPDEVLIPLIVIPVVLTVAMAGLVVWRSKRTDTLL

B1: polypeptide derivative M52 (peptide)
peptide: {C20 diacid-γGlu}-ASQLSTAATQRLADFLRHSSHNLKPILPPTNVGSNT[Hyp]-NH2
SMILES: CC[C@H](C)[C@H](NC(=O)[C@@H]1CCCN1C(=O)[C@H](CCCCN)NC(=O)[C@H](CC(C)C)NC(=O)[C@H](CC(N)=O)NC(=O)[C@H](Cc1c[nH]cn1)NC(=O)[C@H](CO)NC(=O)[C@H](CO)NC(=O)[C@H](Cc1c[nH]cn1)NC(=O)[C@H](CCCNC(=N)N)NC(=O)[C@H](CC(C)C)NC(=O)[C@H](Cc1ccccc1)NC(=O)[C@H](CC(=O)O)NC(=O)[C@H](C)NC(=O)[C@H](CC(C)C)NC(=O)[C@H](CCCNC(=N)N)NC(=O)[C@H](CCC(N)=O)NC(=O)[C@@H](NC(=O)[C@H](C)NC(=O)[C@H](C)NC(=O)[C@@H](NC(=O)[C@H](CO)NC(=O)[C@H](CC(C)C)NC(=O)[C@H](CCC(N)=O)NC(=O)[C@H](CO)NC(=O)[C@H](C)NC(=O)CC[C@H](NC(=O)CCCCCCCCCCCCCCCCCCC(=O)O)C(=O)O)[C@@H](C)O)[C@@H](C)O)C(=O)N[C@@H](CC(C)C)C(=O)N1CCC[C@H]1C(=O)N1CCC[C@H]1C(=O)N[C@H](C(=O)N[C@@H](CC(N)=O)C(=O)N[C@H](C(=O)NCC(=O)N[C@@H](CO)C(=O)N[C@@H](CC(N)=O)C(=O)N[C@H](C(=O)N1C[C@H](O)C[C@H]1C(N)=O)[C@@H](C)O)C(C)C)[C@@H](C)O
B2: polypeptide derivative M51 (peptide)
peptide: {C20 diacid-γGlu}-ASQLSTAATQRLADFLRHSSGNLKPILPPTNVGSNT[Hyp]-NH2
SMILES: CC[C@H](C)[C@H](NC(=O)[C@@H]1CCCN1C(=O)[C@H](CCCCN)NC(=O)[C@H](CC(C)C)NC(=O)[C@H](CC(N)=O)NC(=O)CNC(=O)[C@H](CO)NC(=O)[C@H](CO)NC(=O)[C@H](Cc1c[nH]cn1)NC(=O)[C@H](CCCNC(=N)N)NC(=O)[C@H](CC(C)C)NC(=O)[C@H](Cc1ccccc1)NC(=O)[C@H](CC(=O)O)NC(=O)[C@H](C)NC(=O)[C@H](CC(C)C)NC(=O)[C@H](CCCNC(=N)N)NC(=O)[C@H](CCC(N)=O)NC(=O)[C@@H](NC(=O)[C@H](C)NC(=O)[C@H](C)NC(=O)[C@@H](NC(=O)[C@H](CO)NC(=O)[C@H](CC(C)C)NC(=O)[C@H](CCC(N)=O)NC(=O)[C@H](CO)NC(=O)[C@H](C)NC(=O)CC[C@H](NC(=O)CCCCCCCCCCCCCCCCCCC(=O)O)C(=O)O)[C@@H](C)O)[C@@H](C)O)C(=O)N[C@@H](CC(C)C)C(=O)N1CCC[C@H]1C(=O)N1CCC[C@H]1C(=O)N[C@H](C(=O)N[C@@H](CC(N)=O)C(=O)N[C@H](C(=O)NCC(=O)N[C@@H](CO)C(=O)N[C@@H](CC(N)=O)C(=O)N[C@H](C(=O)N1C[C@H](O)C[C@H]1C(N)=O)[C@@H](C)O)C(C)C)[C@@H](C)O
B3: polypeptide derivative M50 (peptide)
peptide: {C20 diacid-γGlu}-ASQLSTAATQRLADFLRHSSANLKPILPPTNVGSNT[Hyp]-NH2
SMILES: CC[C@H](C)[C@H](NC(=O)[C@@H]1CCCN1C(=O)[C@H](CCCCN)NC(=O)[C@H](CC(C)C)NC(=O)[C@H](CC(N)=O)NC(=O)[C@H](C)NC(=O)[C@H](CO)NC(=O)[C@H](CO)NC(=O)[C@H](Cc1c[nH]cn1)NC(=O)[C@H](CCCNC(=N)N)NC(=O)[C@H](CC(C)C)NC(=O)[C@H](Cc1ccccc1)NC(=O)[C@H](CC(=O)O)NC(=O)[C@H](C)NC(=O)[C@H](CC(C)C)NC(=O)[C@H](CCCNC(=N)N)NC(=O)[C@H](CCC(N)=O)NC(=O)[C@@H](NC(=O)[C@H](C)NC(=O)[C@H](C)NC(=O)[C@@H](NC(=O)[C@H](CO)NC(=O)[C@H](CC(C)C)NC(=O)[C@H](CCC(N)=O)NC(=O)[C@H](CO)NC(=O)[C@H](C)NC(=O)CC[C@H](NC(=O)CCCCCCCCCCCCCCCCCCC(=O)O)C(=O)O)[C@@H](C)O)[C@@H](C)O)C(=O)N[C@@H](CC(C)C)C(=O)N1CCC[C@H]1C(=O)N1CCC[C@H]1C(=O)N[C@H](C(=O)N[C@@H](CC(N)=O)C(=O)N[C@H](C(=O)NCC(=O)N[C@@H](CO)C(=O)N[C@@H](CC(N)=O)C(=O)N[C@H](C(=O)N1C[C@H](O)C[C@H]1C(N)=O)[C@@H](C)O)C(C)C)[C@@H](C)O

biological target: T1, human amylin receptor (AMY3) on …; test: cell-based or functional assay

EC50/nM, CRE-luciferase reporter in amylin receptor/CRE-luc CHO cells | Relative activity (the EC50 ratio of Cagrilintide to the compound) | Binder
0.09 nM | 178% | B1
0.08 nM | 163% | B2
0.07 nM | 186% | B3

Source: EP4663654A1 (Hangzhou Sciwind Biosciences Co., Ltd., dated 2025)
